The results in this text go back to paper PMC12412469 (2025).

Assay [1] has as its target T1, Biotinylated Recombinant Human IL-7R alpha/CD127 Fc Chimera Avi-tag (human, UniProt P16871 21-239, biotin (biotinylated Avi-tag)).
T1 chain: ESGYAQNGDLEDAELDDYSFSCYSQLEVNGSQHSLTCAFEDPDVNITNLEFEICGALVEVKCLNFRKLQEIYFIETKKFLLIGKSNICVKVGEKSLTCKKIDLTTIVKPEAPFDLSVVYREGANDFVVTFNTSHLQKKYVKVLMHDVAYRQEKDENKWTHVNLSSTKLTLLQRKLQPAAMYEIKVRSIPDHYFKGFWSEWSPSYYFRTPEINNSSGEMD
Put plainly: SPR. On the technique in general: Surface plasmon resonance follows binding to a sensor surface in real time, without labels.

The target of assay [2] is T2, Recombinant Human VEGF165 (human, UniProt P15692-4 1-191).
T2 chain: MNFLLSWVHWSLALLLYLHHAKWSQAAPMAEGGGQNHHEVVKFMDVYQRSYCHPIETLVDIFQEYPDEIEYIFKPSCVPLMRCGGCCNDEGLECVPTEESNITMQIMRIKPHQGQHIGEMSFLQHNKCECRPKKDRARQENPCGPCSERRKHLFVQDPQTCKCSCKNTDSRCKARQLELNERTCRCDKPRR

For assay [3], the target named is T2, Recombinant Human VEGF165. The experiment in a line: SPR.
The target of assay [4] is T2, Recombinant Human VEGF165. The experiment in a line: SPR; rhVEGF165 amine-coupled to a CM5 chip; designs injected (multi-cycle kinetics, 60 s injection, 60 s dissociation); PBS with 0.05% Tween-20; 25 °C; 10 µL/min; 1:1 binding assumed, linearization method.

B1: 5NLC scaffold (unmutated template) (other)
chain: MAQIAERLASLRSQLPPSVQLIAVSKNHPAAAIREAYAAGQRHFGENRVQEAIAKQAELTDLPDLTWHLLGKLQSNKARKAVEHFDWIHSVDSWALAERLDRIAGELGRSPKLCLQVKLLPDPNKAGWDPADLRAELPQLSQLQQVQIRGLMVIAPLGLTAAETQALFAQARTFAAELQQQAPQLRLTELSMGMSSDWPLAVAEGATWIRVGTQLFGPRSL
Regarding B1, the koff in assay [1] stood at 0.375 s⁻¹.

B2: Sima3.2 (designed binder)
chain: STNISPKQGLDKAKYFSGKWYLTHVLIKDPKIVSQFCASFTPRESDGTVKIAVYLYLAIKKTSDYAIGEGKLESSGLQYTATSKVVDKKKAVLKELDERHSYTVTVLEADDSSALTHITVREGSKDYGDYYLVLTHQKDAEPSAKVKSAVTQAGLQLSQFVGTKDLGCQYDDQFTSL
Regarding B2, the other in assay [2] was 50%. In assay [3], the Kd came to 14 nM and the koff is 0.0006 s⁻¹.

B3: 6YUD scaffold (unmutated template) (other)
chain: MKFAVIDRKNFTLIHFEIEKPIKPEILKEIEIPSVDTRKGVVISGRGPIWLHCFLAHKYAHTPFVAVYDPRLGAVVVQSHSELREGDVIDVVVEEILKGGVRHV
For the molecule B3, the koff in assay [1] was found to be 0.0821 s⁻¹.

B4: Sam0.7 (designed binder)
chain: LPTAEEVQKLMARYIELMDVGDIEAIVQMYADDATVEAPFGAPPIHGRERIAYFYRRMLGGGIARATLTGPVRASHNGTGAMPFRVEYVFNGQPFAMDVRVEMRFDEHGRIQTMQAYWDWVNLSVREP
As for B4, the proliferation of the VEGF-sensitive leukemia cell line U937 (CellTiter-Blue, 72 h), 1 to 100 µg/mL of the binder, percent of untreated control in assay [2] stood at 50%. Also, in assay [3], the koff is 0.0309 s⁻¹. The Kd in assay [4] amounted to 190 nM.

What is called koff is the first-order rate constant of dissociation. The Kd is the free concentration of one partner at which half of the binding sites on the other are occupied at equilibrium, for simple one-to-one binding.
